Test results: paper PMC6520106

Assays:
[1] = target: BicD2-CTD (C-terminal cargo binding domain of human BicD2, residues 715-804) (human); experiment: ITC
[2] = target: BicD2-CTD (C-terminal cargo binding domain of human BicD2, residues 715-804) (human); experiment: SEC-MALS
Rab6 (Homo sapiens) = Rab6 (Homo sapiens) (UniProt P20340); details: cited from earlier work
UniProt P20340, sequence (P20340 2-208): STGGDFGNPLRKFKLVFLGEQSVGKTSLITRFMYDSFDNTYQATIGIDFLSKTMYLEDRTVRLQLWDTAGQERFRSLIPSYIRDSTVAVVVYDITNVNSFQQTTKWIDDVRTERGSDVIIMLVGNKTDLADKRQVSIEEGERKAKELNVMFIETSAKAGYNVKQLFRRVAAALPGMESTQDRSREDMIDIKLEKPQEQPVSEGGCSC

| Kd [1] [µM] | stoichiometry N (binder per target (2:2 complex)) [2] | dH [1] [kcal/mol] | Substance | also measured |
| --- | --- | --- | --- | --- |
| 12.6 | 1 |  | Rab6^GTP (full-length human Rab6a Q72L, GTP-locked) (from UniProt P20340 1-208) (natural protein) |  |
| 3.8 |  | -12.8 | Nup358-RBD2/RanGTP complex (from UniProt P62826 1-216) |  |
|  |  |  | BicD2 (from UniProt Q8TD16) | Kd (Rab6 (Homo sapiens)): 1 µM |
|  |  |  | BicD2-CTD (C-terminal cargo binding domain of human BicD2, residues 715-804) (domain or fragment) | stoichiometry N [2]: 2 |
| 12 |  |  | Rab6^GTPmin (human Rab6a Q72L, residues 13-174) (from UniProt P20340 13-174) (domain or fragment) |  |
| 0.5 | 1 | -14.9 | Nup358-RBD2 (residues 2006-2443 of human Nup358) (domain or fragment) |  |
